The source of these data is PMC6746701, “A phyB-PIF1-SPA1 kinase regulatory complex promotes photomorphogenesis in Arabidopsis” (Nature Communications, 2019).

This data set deals with the molecule itself. As to the kind of experiment: native gel or EMSA; 5 µg holoprotein on a native 6% PAGE gel, 4 °C, 100 V, 3 h, Coomassie; dimerisation. On the technique in general: A gel shift assay detects complexes by their altered migration in electrophoresis.

B1: phyB-GFP FL holoprotein (Pichia pastoris purified) (receptor, Arabidopsis, UniProt P14713 1-1172, looked up)
chain: MVSGVGGSGGGRGGGRGGEEEPSSSHTPNNRRGGEQAQSSGTKSLRPRSNTESMSKAIQQYTVDARLHAVFEQSGESGKSFDYSQSLKTTTYGSSVPEQQITAYLSRIQRGGYIQPFGCMIAVDESSFRIIGYSENAREMLGIMPQSVPTLEKPEILAMGTDVRSLFTSSSSILLERAFVAREITLLNPVWIHSKNTGKPFYAILHRIDVGVVIDLEPARTEDPALSIAGAVQSQKLAVRAISQLQALPGGDIKLLCDTVVESVRDLTGYDRVMVYKFHEDEHGEVVAESKRDDLEPYIGLHYPATDIPQASRFLFKQNRVRMIVDCNATPVLVVQDDRLTQSMCLVGSTLRAPHGCHSQYMANMGSIASLAMAVIINGNEDDGSNVASGRSSMRLWGLVVCHHTSSRCIPFPLRYACEFLMQAFGLQLNMELQLALQMSEKRVLRTQTLLCDMLLRDSPAGIVTQSPSIMDLVKCDGAAFLYHGKYYPLGVAPSEVQIKDVVEWLLANHADSTGLSTDSLGDAGYPGAAALGDAVCGMAVAYITKRDFLFWFRSHTAKEIKWGGAKHHPEDKDDGQRMHPRSSFQAFLEVVKSRSQPWETAEMDAIHSLQLILRDSFKESEAAMNSKVVDGVVQPCRDMAGEQGIDELGAVAREMVRLIETATVPIFAVDAGGCINGWNAKIAELTGLSVEEAMGKSLVSDLIYKENEATVNKLLSRALRGDEEKNVEVKLKTFSPELQGKAVFVVVNACSSKDYLNNIVGVCFVGQDVTSQKIVMDKFINIQGDYKAIVHSPNPLIPPIFAADENTCCLEWNMAMEKLTGWSRSEVIGKMIVGEVFGSCCMLKGPDALTKFMIVLHNAIGGQDTDKFPFPFFDRNGKFVQALLTANKRVSLEGKVIGAFCFLQIPSPELQQALAVQRRQDTECFTKAKELAYICQVIKNPLSGMRFANSLLEATDLNEDQKQLLETSVSCEKQISRIVGDMDLESIEDGSFVLKREEFFLGSVINAIVSQAMFLLRDRGLQLIRDIPEEIKSIEVFGDQIRIQQLLAEFLLSIIRYAPSQEWVEIHLSQLSKQMADGFAAIRTEFRMACPGEGLPPELVRDMFHSSRWTSPEGLGLSVCRKILKLMNGEVQYIRESERSYFLIILELPVPRKRPLSTASGSGDMMLMMPY
modifications: holoprotein (chromophore bound)
notes: phytochrome B (phyB), Arabidopsis, full length; the host named for this assay is Pichia pastoris; source: Pichia pastoris, purified; not shown: GFP, C-terminal, kept
In the case of B1, the binding result is “binds”.

B2: phyB-GFP ΔC holoprotein (Pichia pastoris purified) (domain or fragment, Arabidopsis, UniProt P14713 1-1092, looked up)
chain: MVSGVGGSGGGRGGGRGGEEEPSSSHTPNNRRGGEQAQSSGTKSLRPRSNTESMSKAIQQYTVDARLHAVFEQSGESGKSFDYSQSLKTTTYGSSVPEQQITAYLSRIQRGGYIQPFGCMIAVDESSFRIIGYSENAREMLGIMPQSVPTLEKPEILAMGTDVRSLFTSSSSILLERAFVAREITLLNPVWIHSKNTGKPFYAILHRIDVGVVIDLEPARTEDPALSIAGAVQSQKLAVRAISQLQALPGGDIKLLCDTVVESVRDLTGYDRVMVYKFHEDEHGEVVAESKRDDLEPYIGLHYPATDIPQASRFLFKQNRVRMIVDCNATPVLVVQDDRLTQSMCLVGSTLRAPHGCHSQYMANMGSIASLAMAVIINGNEDDGSNVASGRSSMRLWGLVVCHHTSSRCIPFPLRYACEFLMQAFGLQLNMELQLALQMSEKRVLRTQTLLCDMLLRDSPAGIVTQSPSIMDLVKCDGAAFLYHGKYYPLGVAPSEVQIKDVVEWLLANHADSTGLSTDSLGDAGYPGAAALGDAVCGMAVAYITKRDFLFWFRSHTAKEIKWGGAKHHPEDKDDGQRMHPRSSFQAFLEVVKSRSQPWETAEMDAIHSLQLILRDSFKESEAAMNSKVVDGVVQPCRDMAGEQGIDELGAVAREMVRLIETATVPIFAVDAGGCINGWNAKIAELTGLSVEEAMGKSLVSDLIYKENEATVNKLLSRALRGDEEKNVEVKLKTFSPELQGKAVFVVVNACSSKDYLNNIVGVCFVGQDVTSQKIVMDKFINIQGDYKAIVHSPNPLIPPIFAADENTCCLEWNMAMEKLTGWSRSEVIGKMIVGEVFGSCCMLKGPDALTKFMIVLHNAIGGQDTDKFPFPFFDRNGKFVQALLTANKRVSLEGKVIGAFCFLQIPSPELQQALAVQRRQDTECFTKAKELAYICQVIKNPLSGMRFANSLLEATDLNEDQKQLLETSVSCEKQISRIVGDMDLESIEDGSFVLKREEFFLGSVINAIVSQAMFLLRDRGLQLIRDIPEEIKSIEVFGDQIRIQQLLAEFLLSIIRYAPSQEWVEIHLSQLSKQMADGFAAIRTEFRMACP
modifications: holoprotein (chromophore bound)
notes: phytochrome B (phyB), Arabidopsis, residues 1-1092 (lacks the last 80 amino acids); source: Pichia pastoris, purified; not shown: GFP, C-terminal, kept
For B2, the binding result was “binds”.
